The values that follow come from patent US20220009992A1 (published 2022).

Test [1] deals with T1, mesothelin (human MSLN, isoform 1, SEQ ID NO:50) peptide on HLA-A*02:01 (human).
T1 peptide: VLPLTVAEV
Nature of the test: multimer staining.

The target in test [2] is T2, OR2J1 peptide on HLA-A*02:01 (human).
T2 peptide: VLALGTAEC
Nature of the test: cytokine release.

Test [3] concerns the target T3, CHPF2 peptide on HLA-A*02:01 (human).
T3 peptide: VLPLLVAEA
Briefly: cytokine release.

Test [4] deals with T4, DNHD1 peptide on HLA-A*02:01 (human).
T4 peptide: VLELLLAEL
Briefly: cytokine release.

Test [5] addresses T5, YN010 peptide on HLA-A*02:01 (human).
T5 peptide: VLALWEAEV
Nature of the test: cytokine release.

Test [6] has as its target T6, ADPRH peptide on HLA-A*02:01 (human).
T6 peptide: VMHLATAEA
Nature of the test: cytokine release.

Test [7] addresses T7, CEAM3 peptide on HLA-A*02:01 (human).
T7 peptide: SMPLSVAEG
Briefly: cytokine release.

For test [8], the target named is T8, CHPF2 peptide on HLA-A*02:01 (human).
T8 peptide: VLPLIVAEA
Briefly: cytokine release.

The target in test [9] is T9, LRCH3 peptide on HLA-A*02:01 (human).
T9 peptide: DLPLRVAEI
Briefly: cytokine release.

In test [10] the target is T10, MLEC peptide on HLA-A*02:01 (human).
T10 peptide: VLVLKFAEV
Nature of the test: cytokine release.

Test [11] concerns the target T11, AL1L1 peptide on HLA-A*02:01 (human).
T11 peptide: VLELTEAEL
Nature of the test: cytokine release.

Test [12] addresses T12, GALP peptide on HLA-A*02:01 (human).
T12 peptide: VLLLSLAET
Nature of the test: cytokine release.

Test [13] addresses T13, ULK1 peptide on HLA-A*02:01 (human).
T13 peptide: VLYLKVAEL
Nature of the test: cytokine release.

In test [14] the target is T14, OR2J2 peptide on HLA-A*02:01 (human).
T14 peptide: VLALGIAEC
Briefly: cytokine release.

The target in test [15] is T15, IN80B peptide on HLA-A*02:01 (human).
T15 peptide: MLPLPVAEG
Briefly: cytokine release.

Test [16] deals with T16, EHF (peptide #10) peptide on HLA-A*02:01 (human).
T16 peptide: VLLLSLAEI
Nature of the test: cytokine release.

The target in test [17] is T17, mesothelin (human MSLN, isoform 1, SEQ ID NO:50) peptide on HLA-A*02:01 (human).
T17 peptide: SLLFLLFSL
Briefly: multimer staining.

B1: Meso530-11A (TCR, V domains shown)
Valpha: GEDVEQSLFLSVREGDSSVINCTYTDSSSTYLYWYKQEPGAGLQLLTYIFSNMDMKQDQRLTVLLNKKDKHLSLRIADTQTGDSAIYFCAETPGYGGATNKLIFGTGTLLAVQP
Vbeta: DTEVTQTPKHLVMGMTNKKSLKCEQHMGHRAMYWYKQKAKKPPELMFVYSYEKLSINESVPSRFSPECPNSSLLNLHLHALQPEDSALYLCASSHGSLNTEAFFGQGTRLTVV
Regarding B1, the binding result is reported as “recognises” in test [1]; “no recognition” in [2]; “no recognition” in test [3]; “no recognition” in test [4]; “no recognition” in [5]; “no recognition” in test [6]. Moreover, the binding result in test [7], in test [8], in test [9], in [10], in test [11] and in test [12] was “no recognition” throughout. For the same molecule, the binding result in test [13], in test [14], in test [15] and in [16] was “no recognition” each time.

B2: Meso20-3B (TCR, V domains shown)
Valpha: GQSLEQPSEVTAVEGAIVQINCTYQTSGFYGLSWYQQHDGGAPTFLSYNALDGLEETGRFSSFLSRSDSYGYLLLQELQMKDSASYFCAVNDASKIIFGSGTRLSIRP
Vbeta: DAGVIQSPRHEVTEMGQEVTLRCKPISGHDYLFWYRQTMMRGLELLIYFNNNVPIDDSGMPEDRFSAKMPNASFSTLKIQPSEPRDSAVYFCASSFTSGSYEQYFGPGTRLTVT
Consider B2, for which, in test [17], the binding result is on record as “recognises”.

B3: Meso530-11B (TCR, V domains shown)
Valpha: KQEVTQIPAALSVPEGENLVLNCSFTDSAIYNLQWFRQDPGKGLTSLLLIQSSQREQTSGRLNASLDKSSGRSTLYIAASQPGDSATYLCAVRLLFAQGGSEKLVFGKGTKLTVNP
Vbeta: ETGVTQSPTHLIKTRGQQVTLRCSSQSGHNTVSWYQQALGQGPQFIFQYYREEENGRGNFPPRFSGLQFPNYSSELNVNALELDDSALYLCASSFAGGRSDTQYFGPGTRLTVL
With B3, the binding result in test [1] is given as “recognises”; in [2] it was “no recognition”; in [3] it was “no recognition”; in test [4] it was “no recognition”; in test [5], “no recognition”; in test [6], “no recognition”. In addition, the binding result in test [7], in [8], in test [9], in [10], in [11] and in [12] was “no recognition” throughout. Besides, the binding result in test [13], in test [14] and in test [15] was “no recognition” in each case.
